We go through one protein from publication PMC2756654 (Journal of molecular biology, 2008).

The series concerns the molecule itself. As to the kind of experiment: unfolding kinetics by CD.

A word on the koff: it is a measure of how fast the partners let go of each other. A higher koff goes with fast dissociation.

B1: Human C6A/C111S SOD (Cu, Zn superoxide dismutase) (enzyme)
chain: not shown
B1 came in with a koff of 0.000381 s⁻¹.
